B1: 25A3-vc-MMAE (antibody, IgG1, V domains shown)
VH: QVQLVQSGAEVKKPGASVKVSCKASGYTFDVYGISWVRQAPGQGLEWMGWIAPYSGNTNYAQKLQGRVTMTTDTSTSTAYMELRSLRSDDTAVYYCARDAGTYSPFGYGMDVWGQGTTVTVSS
VL: DIQMTQSPSTLSASVGDRVTITCQASQSINNWLAWYQQKPGKAPKLLIYKAYNLESGVPSRFSGSGSGTEFTLTISSLQPDDFATYYCQLFQSLPPFTFGGGTKVEIK
modifications: MC-vc-PAB-MMAE on cysteines of the partially reduced antibody (chain and positions not stated), DAR 3-4
notes: Antibody-drug conjugate (primary ADC) of the IgG1 antibody; also called 25A3 ADC; 25A3 MMAE ADC
B2: 25A5-T (antibody, human IgG1, V domains shown)
VH: QVQLVQSGAEVKKPGASVKVSCKASGYTFDAYGISWVRQAPGQGLEWMGWIAPYSGNTNYAQKLQGRVTMTTDTSTSTAYMELRSLRSDDTAVYYCARDAGTYSPFGYGMDVWGQGTTVTVSS
VL: DIQMTQSPSTLSASVGDRVTITCRASESISNWLAWYQQKPGKAPKLLIYKAYSLEYGVPSRFSGSGSGTEFTLTISSLQPDDFATYYCQQFQKLPPFTFGGGTKVEIK
notes: Human IgG1; also called antibody designated 25A5-T
B3: anti-TF antibody 25G1 conjugated to MC-vc-PAB-MMAE (antibody, IgG1, V domains shown)
VH: QVQLVQSGAEVKKPGASVKVSCKASGYTFRSYGISWVRQAPGQGLEWMGWVAPYSGNTNYAQKLQGRVTMTTDTSTSTAYMELRSLRSDDTAVYYCARDAGTYSPYGYGMDVWGQGTTVTVSS
VL: DIQMTQSPSTLSASVGDRVTITCRASHSIDSWLAWYQQKPGKAPKLLIYKASYLESGVPSRFSGSGSGTEFTLTISSLQPDDFATYYCQLFQSLPPFTFGGGTKVEIK
modifications: MC-vc-PAB-MMAE on cysteines of the partially reduced antibody (chain and positions not stated), DAR 3-4
notes: Antibody-drug conjugate (primary ADC) of the IgG1 antibody; also called 25G1 ADC
B4: anti-TF antibody 29E conjugated to MC-vc-PAB-MMAE (antibody, IgG1, V domains shown)
VH: QVQLVESGGGVVQPGRSLRLSCAASGFTFRSYGMHWVRQAPGKGLEWVAVITYDGINKYYADSVEGRFTISRDNSKNTLYLQMNSLRAEDTAVYYCARDGVYYGVYDYWGQGTLVTVSS
VL: not shown
modifications: MC-vc-PAB-MMAE on cysteines of the partially reduced antibody (chain and positions not stated), DAR 3-4
notes: Antibody-drug conjugate (primary ADC) of the IgG1 antibody; also called 29E ADC
B5: anti-TF antibody 39A conjugated to MC-vc-PAB-MMAE (antibody, IgG1, V domains shown)
VH: QVQLVQSGAEVKKPGSSVKVSCKASGGTFSSNAIGWVRQAPGQGLEWMGSIIPIIGFANYAQKFQGRVTITADESTSTAYMELSSLRSEDTAVYYCARDSGYYYGASSFGMDVWGQGTTVTVSS
VL: EIVMTQSPATLSVSPGERATLSCRASQSVSSNLAWYQQKPGQAPRLLIYGASTRATGIPARFSGSGSGTEFTLTISSLQSEDFAVYYCEQYNNLPLTFGGGTKVEIK
modifications: MC-vc-PAB-MMAE on cysteines of the partially reduced antibody (chain and positions not stated), DAR 3-4
notes: Antibody-drug conjugate (primary ADC) of the IgG1 antibody; also called 39A ADC
B6: anti-TF antibody 54E conjugated to MC-vc-PAB-MMAE (antibody, IgG1, V domains shown)
VH: QVQLVQSGAEVKKPGASVKVSCKASGYTFANYYMHWVRQAPGQGLEWMGIINPSGGITVYAQKFQGRVTMTRDTSTSTVYMELSSLRSEDTAVYYCARGGSKVAALAFDIWGQGTMVTVSS
VL: DIQMTQSPSSLSASVGDRVTITCQASQDISNSLNWYQQKPGKAPKLLIYDASNLETGVPSRFSGSRSGTDFTFTISSLQPEDIATYYCQQYNFHPLTFGGGTKVEIK
modifications: MC-vc-PAB-MMAE on cysteines of the partially reduced antibody (chain and positions not stated), DAR 3-4
notes: Antibody-drug conjugate (primary ADC) of the IgG1 antibody; also called 54E ADC

Tests used:
[1] = molecular target: T1, human Tissue Factor (hTF) (human, UniProt P13726 33-295); assay: cell-based or functional assay
[2] = molecular target: T1, human Tissue Factor (hTF); assay: cell-based or functional assay; remark: listed apart in the source
[3] = molecular target: T2, human Tissue Factor on human TF-positive cells (human, UniProt P13726 33-295); assay: flow cytometry, titration of the MC-vc-PAB-MMAE ADC on HCT-116 cells (human TF), 4-parameter fit of MFI
T2 construct: also called hTF; CD142

[4] = molecular target: T3, rTF (rat TF) construct on HEK293 cells (rat, UniProt P42533 29-252); assay: flow cytometry (live cell staining), antibody titration 1:3 from 250 nM on HEK293 cells transfected with rTF
T3 construct: not shown: transmembrane/cytoplasmic anchor of the cell-surface construct
T3 sequence (P42533 29-252 limits assumed): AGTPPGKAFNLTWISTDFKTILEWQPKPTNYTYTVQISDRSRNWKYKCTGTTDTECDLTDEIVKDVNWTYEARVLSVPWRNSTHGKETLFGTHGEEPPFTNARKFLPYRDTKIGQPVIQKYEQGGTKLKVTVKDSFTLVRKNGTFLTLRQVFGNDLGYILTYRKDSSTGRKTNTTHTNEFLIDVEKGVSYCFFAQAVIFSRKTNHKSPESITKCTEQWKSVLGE

Row | Binder | IC50, cell viability of A431 cells, Primary ADC, 4 hr, followed by washout (FIG. 20B) [1] [pM] | IC50, cell viability of A431 cells, Primary ADC, 4 hr, followed by washout, absence of FVIIa (FIG. 21A) [1] [pM] | IC50, cell viability of A431 cells, Primary ADC, Continuous (FIG. 20A) [2] [pM] | IC50, cell viability of HPAF-II cells, Primary ADC, Continuous (FIG. 22E) [2] [pM] | IC50, cell viability of MDA-MB-231 cells, Primary ADC, Continuous (FIG. 22D) [2] [pM] | EC50 [3] [pM] | binding result [4]
1 | B1 | 190 | 120 | 70 | 50 | 110 | 170 | 
2 | B2 |  |  |  |  |  |  | no binding (tested: 250 nM)
3 | B3 | 190 | 100 | 60 | 40 | 90 | 170 | 
4 | B4 | 200 | 130 | 60 | 40 | 70 | 250 | 
5 | B5 | 120 | 90 | 50 | 40 | 50 | 100 | 
6 | B6 | 260 | 200 | 70 |  |  | 330 | 
